Results from patent US5786328, “Use of kunitz type plasma kallikrein inhibitors” (Genentech, Inc., dated 1998).
Where no end group is shown, it is not given here.

What was measured:
Assay in all cases: cell-based or functional assay
Human Factor XIIa = target: T1, Human Factor XIIa (human, UniProt P00748)
T1 sequence 1: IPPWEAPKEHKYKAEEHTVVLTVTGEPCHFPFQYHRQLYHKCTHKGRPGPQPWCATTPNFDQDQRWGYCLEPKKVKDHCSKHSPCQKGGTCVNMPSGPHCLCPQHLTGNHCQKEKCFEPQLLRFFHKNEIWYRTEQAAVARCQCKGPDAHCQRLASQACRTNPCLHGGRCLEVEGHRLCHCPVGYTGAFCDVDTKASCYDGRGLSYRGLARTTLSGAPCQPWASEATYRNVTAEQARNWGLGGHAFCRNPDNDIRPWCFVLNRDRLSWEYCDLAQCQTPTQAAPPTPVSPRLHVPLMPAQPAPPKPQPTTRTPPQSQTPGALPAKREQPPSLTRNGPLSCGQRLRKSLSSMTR
T1 sequence 2: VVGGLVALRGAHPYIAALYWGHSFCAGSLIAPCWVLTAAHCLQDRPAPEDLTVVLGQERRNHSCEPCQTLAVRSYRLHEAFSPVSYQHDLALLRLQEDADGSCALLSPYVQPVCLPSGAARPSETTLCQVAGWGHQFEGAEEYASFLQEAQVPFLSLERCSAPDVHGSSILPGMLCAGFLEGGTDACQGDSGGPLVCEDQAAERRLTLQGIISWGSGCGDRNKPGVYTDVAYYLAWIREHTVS

Human Factor Xa = Human Factor Xa (human, UniProt P00742)
Human thrombin = Human thrombin (human, UniProt P00734)
Human plasmin = Human plasmin (human, UniProt P00747)
[1] = target: Human activated protein C (human, UniProt P04070)

B1: APPI (Alzheimer's amyloid β-protein precursor inhibitor) (other)
chain: VREVCSEQAETGPCRAMISRWYFDVTEGKCAPFFYGGCGGNRNNFDTEEYCMAVCGSA
modifications: not fully specified (bridges); ends and bridges not checked
In the case of B1, the “fraction of remaining proteolytic activity with 100 nM inhibitor” value (Human Factor XIIa) is reported as 0.97 fraction of uninhibited rate, the “fraction of remaining proteolytic activity with 100 nM inhibitor” value (Human Factor Xa) is reported as 0.89 fraction of uninhibited rate and the “fraction of remaining proteolytic activity with 100 nM inhibitor” value (Human thrombin) is reported as 0.92 fraction of uninhibited rate. The “fraction of remaining proteolytic activity with 100 nM inhibitor” value (Human plasmin) was 0.62 fraction of uninhibited rate and the “fraction of remaining proteolytic activity with 100 nM inhibitor” value [1] was 0.87 fraction of uninhibited rate.
